The target in test [1] is human Trop-2 (human) (UniProt P09758). In words: cell binding on NCI-N87 cells, Bmax against murine RS7 as reference.
For test [2] the target is unchanged. Put plainly: cell binding on NCI-N87 cells, anti-mouse-HRP, luminescence.
Test [3] shares this target. In words: cell binding on NCI-N87 cells, 0.03 to 66 nM antibody, anti-mouse-HRP, luminescence.
The target is the same in test [4]. In words: cell-based or functional assay.
For test [5] the target is unchanged. In words: cell binding assay, cell line not stated.

Sequence of human Trop-2 (human) (P09758 27-323): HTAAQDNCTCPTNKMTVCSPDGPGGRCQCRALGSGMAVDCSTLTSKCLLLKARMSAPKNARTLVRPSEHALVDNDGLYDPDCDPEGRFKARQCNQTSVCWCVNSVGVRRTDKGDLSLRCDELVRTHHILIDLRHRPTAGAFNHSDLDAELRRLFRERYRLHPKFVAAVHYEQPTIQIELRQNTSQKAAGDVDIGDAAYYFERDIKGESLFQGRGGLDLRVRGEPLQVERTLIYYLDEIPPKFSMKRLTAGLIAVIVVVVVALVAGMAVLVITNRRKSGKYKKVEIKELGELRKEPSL

With “MAB650 murine monoclonal antibody against human Trop-2 (R&D Systems)”, the reduction of maximum binding (Bmax) compared to RS7 with human Trop-2 (human) [1] is 50%. The same substance had a maximum binding (Bmax) (relative luminescent units) with human Trop-2 (human) [2] of 6020. The Kd with human Trop-2 (human) [3] turned out to be 0.49 nM.
In the case of “humanized RS7 (hRS7) anti-Trop-2 antibody, unconjugated IgG”, the ADCC, specific lysis of BxPC-3 cells by PBMCs (effector to target 100:1, antibody 33.3 nM) with human Trop-2 (human) [4] is 8.5%.
“hRS7-CL2-SN-38 (hRS7 IgG conjugated to SN-38 by the CL2 linker) (antibody)” registered a Kd in the test with human Trop-2 (human) [5] of 1.2 nM.
Regarding “162-46.2 murine monoclonal antibody against human Trop-2”, the reduction of maximum binding (Bmax) compared to RS7 with human Trop-2 (human) [1] is 25%. The maximum binding (Bmax) (relative luminescent units) in the test with human Trop-2 (human) [2] was 8470. In the test with human Trop-2 (human) [3], this substance yielded a Kd of 0.52 nM.
On to “hRS7-CL2A-SN-38 (hRS7 IgG conjugated to SN-38 by the CL2A linker) (antibody)”, for which, in the test with human Trop-2 (human) [5], the Kd is 1.2 nM.

The values above are taken from patent US20170014527A1.
